Read-outs that look alike come from different tables or passages of the source.
Key:
Assay in all cases: fluorescence anisotropy
NC(1-55) WT, zinc-bound [1] = target: T1, NC(1-55) WT, zinc-bound (HIV-1 (NL4-3 isolate), UniProt P12493 378-432)
NC(1-55) WT, zinc-bound [2] = target: T1, NC(1-55) WT, zinc-bound; remark: listed apart in the source
NC(1-28) = target: T2, NC(1-28) (HIV-1 (NL4-3 isolate), UniProt P12493 378-405)
T2 chain: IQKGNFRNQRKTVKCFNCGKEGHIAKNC

NC(29-55) = NC(29-55) (HIV-1 (NL4-3 isolate), UniProt P12493 406-432)
NC(1-35) = target: T3, NC(1-35) (HIV-1 (NL4-3 isolate), UniProt P12493 378-412)
T3 chain: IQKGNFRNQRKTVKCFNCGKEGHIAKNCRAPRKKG

CTTCTTTGGGAGTGAATTAG (ssDNA) [5'-FAM-DNA20]
Kd (NC(1-55) WT, zinc-bound [1]): 16 ± 5 nM | Kd (NC(1-55) WT, zinc-bound [2]): 57 ± 22 nM | Kd (NC(1-28)): 731 ± 150 nM | Kd (NC(29-55)): 867 ± 3 nM | Kd (NC(1-35)): 86 ± 19 nM

— paper PMC3875364
